Reference: article PMC11602160, “Modulation of UPF1 catalytic activity upon interaction of SARS-CoV-2 Nucleocapsid protein with factors involved in nonsense mediated-mRNA decay” (Nucleic Acids Research, 2024)

Target: T1, full-length GST-tagged SARS-CoV-2 Nucleocapsid (N) protein (SARS-CoV-2, UniProt P0DTC9 1-419)
T1 construct: SARS-CoV-2 Nucleocapsid (N) protein, full length; also called GST-N
Experiment: pull-down
Conditions: both partners purified

B1: UPF2 truncated construct lacking 120 and 45 residues at the N- and C-termini (domain or fragment, human, UniProt Q9HAU5 121-1227, looked up)
chain: MKEKEESIQLHQEAWERHHLRKELRSKNQNAPDSRPEENFFSRLDSSLKKNTAFVKKLKTITEQQRDSLSHDFNGLNLSKYIAEAVASIVEAKLKISDVNCAVHLCSLFHQRYADFAPSLLQVWKKHFEARKEEKTPNITKLRTDLRFIAELTIVGIFTDKEGLSLIYEQLKNIINADRESHTHVSVVISFCRHCGDDIAGLVPRKVKSAAEKFNLSFPPSEIISPEKQQPFQNLLKEYFTSLTKHLKRDHRELQNTERQNRRILHSKGELSEDRHKQYEEFAMSYQKLLANSQSLADLLDENMPDLPQDKPTPEEHGPGIDIFTPGKPGEYDLEGGIWEDEDARNFYENLIDLKAFVPAILFKDNEKSCQNKESNKDDTKEAKESKENKEVSSPDDLELELENLEINDDTLELEGGDEAEDLTKKLLDEQEQEDEEASTGSHLKLIVDAFLQQLPNCVNRDLIDKAAMDFCMNMNTKANRKKLVRALFIVPRQRLDLLPFYARLVATLHPCMSDVAEDLCSMLRGDFRFHVRKKDQINIETKNKTVRFIGELTKFKMFTKNDTLHCLKMLLSDFSHHHIEMACTLLETCGRFLFRSPESHLRTSVLLEQMMRKKQAMHLDARYVTMVENAYYYCNPPPAEKTVKKKRPPLQEYVRKLLYKDLSKVTTEKVLRQMRKLPWQDQEVKDYVICCMINIWNVKYNSIHCVANLLAGLVLYQEDVGIHVVDGVLEDIRLGMEVNQPKFNQRRISSAKFLGELYNYRMVESAVIFRTLYSFTSFGVNPDGSPSSLDPPEHLFRIRLVCTILDTCGQYFDRGSSKRKLDCFLVYFQRYVWWKKSLEVWTKDHPFPIDIDYMISDTLELLRPKIKLCNSLEESIRQVQDLEREFLIKLGLVNDKDSKDSMTEGENLEEDEEEEEGGAETEEQSGNESEVNEPEEEEGSDNDDDEGEEEEEENTDYLTDSNKENETDEENTEVMIKGGGLKHVPCVEDEDFIQALDKMMLENLQQRSGESVKVHQLDVAIPLHLKSQLRKGPPLGGGEGEAESADTMPFVMLTRKGNKQQFKILNVPMSSQLAANHWNQQQAEQEERMRMKKLTLDINERQEQED
notes: human UPF2 lacking 120 residues at the N-terminus and 45 residues at the C-terminus
- binding result: binds
